“And” between values parts separate entries of the source, which are not always exact repeats. Equal values may be shown once.
Molecular target: MCL-1ES, wild type (amino acids 1-197), Flag-tagged (human)
Experiment: cross-linking; 293T cells; heavy membrane fraction cross-linked with glutaraldehyde, western blot; increasing MCL-1ES expression; also with MCL-1L over-expressed or knocked down

stoichiometry N: 2 and 3
Substance: MCL-1ES, wild type (amino acids 1-197), Flag-tagged (natural protein)

Source: paper PMC3832543
